Source: doi:10.1101/2021.03.09.434581
Where “and” joins values, the source holds several entries; their conditions need not be identical. Equal entries are not always repeated.

Legend:
[1] = biological target: Vibrio cholerae ParD2 antitoxin, full length (Vibrio cholerae); experiment: SEC-SAXS
[2] = biological target: Vibrio cholerae ParD2 antitoxin, full length (Vibrio cholerae); experiment: SEC-MALS
[3] = biological target: Vibrio cholerae ParD2 N-terminal domain as found in the crystal (Vibrio cholerae); experiment: crystal structure

Row | Substance | stoichiometry N [1] | stoichiometry N [2] | stoichiometry N [3]
1 | Vibrio cholerae ParD2 antitoxin, full length (natural protein) | 12 | 10 and 12 and 8 | 
2 | Vibrio cholerae ParD2 N-terminal domain as found in the crystal (domain or fragment) |  |  | 16
